In article PMC4039619 (Matrix biology : journal of the International Society for …, 2014):

Target: human recombinant IR-A extracellular domain (Met 1-Lys 944) with C-terminal polyhistidine tag (human, UniProt P06213-2 28-944)
Assay: ELISA

Kd: 7.8 nM
B1: human recombinant decorin protein core (natural protein, UniProt P07585 31-359, looked up)
chain: DEASGIGPEVPDDRDFEPSLGPVCPFRCQCHLRVVQCSDLGLDKVPKDLPPDTTLLDLQNNKITEIKDGDFKNLKNLHALILVNNKISKVSPGAFTPLVKLERLYLSKNQLKELPEKMPKTLQELRAHENEITKVRKVTFNGLNQMIVIELGTNPLKSSGIENGAFQGMKKLSYIRIADTNITSIPQGLPPSLTELHLDGNKISRVDAASLKGLNNLAKLGLSFNSISAVDNGSLANTPHLRELHLDNNKLTRVPGGLAEHKYIQVVYLHNNNISVVGSSDFCPPGHNTKKASYSGVSLFSNPVQYWEIQPSTFRCVYVRSAIQLGNYK
